T1: C-Avi-His-TEVs-HSA_hBCMA, Tumor necrosis factor receptor superfamily member 17 (Homo sapiens) aa 1-54 (Homo sapiens, UniProt Q02223 1-54)
T1 construct: range 1-54; not shown: Avi, His, TEV site and HSA parts as the name implies
T1 sequence (looked up): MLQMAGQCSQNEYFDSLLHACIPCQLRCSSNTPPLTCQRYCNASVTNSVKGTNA

T2: IL5R-His, Interleukin-5 receptor subunit alpha (Homo sapiens) aa 22-342 (Homo sapiens, UniProt Q01344 22-342)
T2 construct: not shown: His tag as the name implies
T2 sequence (looked up): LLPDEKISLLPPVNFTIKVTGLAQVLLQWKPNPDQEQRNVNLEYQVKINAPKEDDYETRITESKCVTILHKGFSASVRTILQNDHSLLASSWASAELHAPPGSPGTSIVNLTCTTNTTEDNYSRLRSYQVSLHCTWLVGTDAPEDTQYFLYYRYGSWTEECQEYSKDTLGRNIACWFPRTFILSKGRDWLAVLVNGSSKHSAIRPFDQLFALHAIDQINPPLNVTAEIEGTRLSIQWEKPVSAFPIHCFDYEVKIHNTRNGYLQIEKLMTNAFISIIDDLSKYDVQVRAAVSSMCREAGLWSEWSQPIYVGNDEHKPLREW


Tests used:
[1] = molecular target: T3, extracellular domain of the human PD-1 protein (hPD1ex-H6F) (Homo sapiens, UniProt Q15116 21-170); test: BLI Octet RED 384; antibody on ProA sensor, antigen in solution; 1:1 global fit
T3 construct: Molecular weight 20.6 kDa; made in CHO cells; also called hPDlex-H6F; not shown: C-terminal His and FLAG tags
Protocol: (§1) The experiments were carried out using a kinetic buffer solution (hereinafter referred to as 1×KB) having the following formulation: 4.3 mM Na₂HPO₄; 136.9 mM NaCl, 1.5 mM KH₂PO₄; 2.7 mM KCl; the volume fraction of the added Tween 20 was 0.1%; the mass fraction of the added BSA (bovine serum albumin) was 0.1%; pH 7.4. Before the measurement, the ProA sensors were regenerated with a solution of 50 mM glycine and hydrochloric acid, pH 1.8 (5 seconds in the regenerating solution, 5 seconds in 1×KB, three repetitions). In the case of the hPD1ex-H6F and hCSF1R_His antigens, the Protein A (ProA) biosensors (ForteBio) were immersed in a solution with antibodies at a concentration of 10 μg/ml for 60 seconds to immobilize same. The baseline was recorded in 1×KB for 60 seconds. The sensors loaded with the antibody were then immersed into wells containing a solution of the target antigen (analyte) in a kinetic buffer for 90 seconds. Measurements were performed for solutions with hPDlex-H6F analyte at concentrations of 2.50 μg/ml (121.4 nM), 1.25 μg/ml (60.7 nM), 0.625 μg/ml (30.35 nM). […] Then we detected complex dissociation in 1×KB for 210 s for hPDlex-H6F, 300 s for hCSF1R_His.
(§2) All measurements were carried out at 30° C., orbital mixing speed was 1,000 revolutions per minute.
(§3) To obtain numerical values of kinetic constants (kₒₙ is the on/association rate constant, kdis is the dissociation rate constant, KD is the equilibrium dissociation constant or affinity constant), the resulting sensograms were processed according to the 1:1 interaction model using Global Fit (selection of one set of kon, kdis, KD constants to analyze several sensograms of different concentrations) of the ForteBio Octet Data Analysis 9.0 software.

[2] = molecular target: T1, C-Avi-His-TEVs-HSA_hBCMA, Tumor …; test: BLI Octet RED 384; antibody on ProA sensor, antigen 30 ug/ml
[3] = molecular target: T4, Macaca CSF1R_C-His, Macrophage colony-stimulating factor 1 receptor (Macaca mulatta) aa 20-513 (Macaca mulatta); test: BLI Octet RED 384; antibody on ProA sensor, antigen 30 ug/ml (534.8 nM); response at end of association
T4 construct: range 20-513
Protocol: (§4) Experimental study of nonspecific binding of bispecific chimeric antibodies to non-target antigens was performed on Forte Bio Octert RED 384. Protein A (ProA) biosensors (ForteBio) were immersed into a solution containing antibodies at a concentration of 10 μg/ml for 150 seconds to immobilize same. The baseline was recorded in a 1×KB solution for 30 seconds. The antibody-loaded sensors were then immersed into wells containing non-target antigens at a concentration of 30 μg/ml for 150 seconds. Complex dissociation was then recorded for 30 seconds.
(§5) The reference sensors went through all the steps as the sensors used to record analyte sensograms did, with the exception of the association step—at the association step, the sensors were immersed in a kinetic buffer solution without analyte (the reference sensor signals were measured in parallel with the recording of the main sensograms). The reference signal was subtracted from the signal received on sensors interacting with the analyte during the processing of sensograms.
(§6) Sensograms were processed using ForteBio Octet Data Analysisn 9.0 software. To report no non-specific interaction, the recorded signal level was checked at the end of the association step (the response parameter).

[4] = molecular target: T5, biotinylated peptide [NH2]…JQS[CH2CH2]biotin comprising a fragment of the human CD20 sequence (human, [NH2] at the N-terminus; [CH2CH2]biotin at the C-terminus; the letter J at position 20 is printed so and is not a standard residue code); test: BLI Octet RED 384; biotinylated peptide on SAX sensor, antibody in solution; 1:1 global fit
T5 construct: also called CD20 peptide
Protocol: In the case of the biotinylated CD20 peptide, the peptide at a concentration of 5 μg/ml was immobilized on the surface of SAX sensors (High Precision Streptavidin (SAX) biosensors, ForteBio) for 120 seconds. The baseline was recorded in a 1×KB solution for 120 seconds. The sensors containing the loaded peptide were immersed into wells containing the antibody solution (analyte) in 1×KB for 15 seconds. Measurements were carried out for solutions with analyte (antibodies in the case of CD20 peptide) at concentrations of 150 μg/ml, 75 μg/ml, 37.5 μg/ml. Complex dissociation was recorded in 1×KB for 120 seconds.
as §2, §3

[5] = molecular target: T2, IL5R-His, Interleukin-5 receptor …; test: BLI Octet RED 384; antibody on ProA sensor, antigen 30 ug/ml (757.6 nM); response at end of association
Protocol: as §4, §5, §6

[6] = molecular target: T6, extracellular domain of the human CSF1R protein (hCSF1R_His) (Homo sapiens, UniProt P07333 20-512); test: BLI Octet RED 384; antibody on ProA sensor, antigen in solution; 1:1 global fit
T6 construct: range 20-512; Molecular weight 57.4 kDa; made in CHO cells; also called hCSF1_His; not shown: C-terminal His and FLAG tags
Protocol: as §1, §2, §3

T3 sequence (Q15116 21-170 limits assumed, form in doubt): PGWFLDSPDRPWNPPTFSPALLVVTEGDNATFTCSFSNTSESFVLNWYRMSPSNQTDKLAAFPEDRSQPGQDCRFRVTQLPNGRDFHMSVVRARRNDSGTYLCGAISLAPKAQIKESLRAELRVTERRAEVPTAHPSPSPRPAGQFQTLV
T5 sequence (peptide, as listed by the source): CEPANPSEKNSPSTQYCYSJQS
T6 sequence (P07333 20-512 limits assumed): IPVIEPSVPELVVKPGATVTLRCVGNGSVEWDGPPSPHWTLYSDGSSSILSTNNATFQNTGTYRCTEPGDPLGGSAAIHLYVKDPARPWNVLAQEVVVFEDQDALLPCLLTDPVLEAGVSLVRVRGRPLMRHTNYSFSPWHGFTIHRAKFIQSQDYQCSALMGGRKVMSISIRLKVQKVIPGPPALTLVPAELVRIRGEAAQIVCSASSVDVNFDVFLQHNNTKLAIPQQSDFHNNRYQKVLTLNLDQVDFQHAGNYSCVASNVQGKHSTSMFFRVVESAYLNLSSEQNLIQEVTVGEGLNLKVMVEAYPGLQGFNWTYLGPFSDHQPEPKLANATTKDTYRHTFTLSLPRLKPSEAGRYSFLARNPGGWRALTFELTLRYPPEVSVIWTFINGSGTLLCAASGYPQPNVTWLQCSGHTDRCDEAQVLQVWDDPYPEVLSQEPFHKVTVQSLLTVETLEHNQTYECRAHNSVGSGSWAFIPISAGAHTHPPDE

Kd [1] | koff [1] | kon [1] | Signal level (nm) [3] | Kd [4] | koff [4] | kon [4] | Signal level (nm) [5] | Kd [6] | koff [6] | kon [6] | Binder | binding result [2]
3.49 nM | 0.000753 s⁻¹ | 216000 M⁻¹ s⁻¹ | 0.0236 nm | 1270 nM | 0.238 s⁻¹ | 188000 M⁻¹ s⁻¹ | 0.0249 nm |  |  |  | 02-004, bivalent bispecific chimeric antibody that specifically binds to PD1 and CD20 (bispecific antibody, human IgG1, kappa, L234A L235A, Produced in CHO cells) heavy 1: QVQLVQSGGGLVQPGGSLRLSCAASGFTFSSYWMYWVRQVPGKGLEWVSAIDTGGGRTYYADSVKGRFAISRVNAKNTMYLQMNSLRAEDTAVYYCARDEGGGTGWGVLKDWPYGLDAWGQGTLVTVSSASTKGPSVFPLAPSSKSTSGGTAALGCLVKDYFPEPVTVSWNSGALTSGVHTFPAVLQSSGLYSLSSVVTVPSSSLGTQTYICNVNHKPSNTKVDKRVEPKSCDKTHTCPPCPAPEAAGGPSVFLFPPKPKDTLYITREPEVTCVVVDVSHEDPEVKFNWYVDGVEVHNAKTKPREEQYNSTYRVVSVLTVLHQDWLNGKEYKCKVSNKALPAPIEKTISKAKGQPREPQVCTLPPSRDELTKNQVSLSCAVKGFYPSDIAVEWESNGQPENNYKTTPPVLDSDGSFFLVSKLTVDKSRWQQGNVFSCSVMHEALHNHYTQKSLSLSPGK light 1: QPVLTQPLSVSVALGQTARITCGGNNIGSKNVHWYQQKPGQAPVLVIYRDSNRPSGIPERFSGSNSGNTATLTISRAQAGDEADYYCQVWDSSTAVFGTGTKLTVLQRTVAAPSVFIFPPSDEQLKSGTASVVCLLNNFYPREAKVQWKVDNALQSGNSQESVTEQDSKDSTYSLSSTLTLSKADYEKHKVYACEVTHQGLSSPVTKSFNRGEC heavy 2: not shown light 2: DIQMTQSPSSLSASVGDRVTITCRASSSVSYMHWYQQKPGKAPKPLIYAPSNLASGVPSRFSGSGSGTDFTLTISSLQPEDFATYYCQQWSFNPPTFGQGTKVEIKQRQVKPEAWLSSGPSPGPGRLQLVCHVSGFYPKPVWVMWMRGEQEQQGTQLGDILPNANWTWYLRATLDVADGEAAGLSCRVKHSSLEGQDIILYWRGSC | no binding (tested: 391.2 nM)
 |  |  | 0.531 nm | 820 nM | 0.177 s⁻¹ | 216000 M⁻¹ s⁻¹ | -0.0064 nm | 0.42 nM | 0.00021 s⁻¹ | 500000 M⁻¹ s⁻¹ | 02-009, bivalent bispecific chimeric antibody that specifically binds to CD20 and CSF1R (bispecific antibody, human IgG1, kappa, L234A L235A, Produced in CHO cells) heavy 1: QVQLVESGGGLVRPGGSLRLSCAASEFTFDDYAMSWVRQAPGKGLEWVSAISWNGGSTNYADSVKGRFTISRDNAKNSLYLQMNSLRAEDTALYYCASTVEVAHRRLYKYLEVWGQGTLVTVSSASTKGPSVFPLAPSSKSTSGGTAALGCLVKDYFPEPVTVSWNSGALTSGVHTFPAVLQSSGLYSLSSVVTVPSSSLGTQTYICNVNHKPSNTKVDKRVEPKSCDKTHTCPPCPAPEAAGGPSVFLFPPKPKDTLYITREPEVTCVVVDVSHEDPEVKFNWYVDGVEVHNAKTKPREEQYNSTYRVVSVLTVLHQDWLNGKEYKCKVSNKALPAPIEKTISKAKGQPREPQVCTLPPSRDELTKNQVSLSCAVKGFYPSDIAVEWESNGQPENNYKTTPPVLDSDGSFFLVSKLTVDKSRWQQGNVFSCSVMHEALHNHYTQKSLSLSPGK light 1: QAGLTQPPSVSVAPGQTARITCGGNNIGSKSVHWYQQKPGQAPVLVVYGDSDRPSGIPERFSGSNSGNTATLTISRVEAGDEADYYCQVWDISSDHVVFGGGTQLTVLRTVAAPSVFIFPPSDEQLKSGTASVVCLLNNFYPREAKVQWKVDNALQSGNSQESVTEQDSKDSTYSLSSTLTLSKADYEKHKVYACEVTHQGLSSPVTKSFNRGEC heavy 2: not shown light 2: DIQMTQSPSSLSASVGDRVTITCRASSSVSYMHWYQQKPGKAPKPLIYAPSNLASGVPSRFSGSGSGTDFTLTISSLQPEDFATYYCQQWSFNPPTFGQGTKVEIKQRQVKPEAWLSSGPSPGPGRLQLVCHVSGFYPKPVWVMWMRGEQEQQGTQLGDILPNANWTWYLRATLDVADGEAAGLSCRVKHSSLEGQDIILYWRGSC | 
 |  |  | 0.549 nm | 892 nM | 0.329 s⁻¹ | 369000 M⁻¹ s⁻¹ | 0.0098 nm | 0.549 nM | 0.000236 s⁻¹ | 429000 M⁻¹ s⁻¹ | 02-008, bivalent bispecific chimeric antibody that specifically binds to CD20 and CSF1R (bispecific antibody, human IgG1, kappa, L234A L235A, Produced in CHO cells) heavy 1: EVQLVESGGGLVQPGGSLRLSCAASGYTFTSYNMHWVRQAPGKGLEWVGAIYPGNGDTSYNQKFKGRFTISVDKSKNTLYLQMNSLRAEDTAVYYCARVVYYSNSYWYFDVWGQGTLVTVSSASTKGPSVFPLAPSSKSTSGGTAALGCLVKDYFPEPVTVSWNSGALTSGVHTFPAVLQSSGLYSLSSVVTVPSSSLGTQTYICNVNHKPSNTKVDKRVEPKSCDKTHTCPPCPAPEAAGGPSVFLFPPKPKDTLYITREPEVTCVVVDVSHEDPEVKFNWYVDGVEVHNAKTKPREEQYNSTYRVVSVLTVLHQDWLNGKEYKCKVSNKALPAPIEKTISKAKGQPREPQVCTLPPSRDELTKNQVSLSCAVKGFYPSDIAVEWESNGQPENNYKTTPPVLDSDGSFFLVSKLTVDKSRWQQGNVFSCSVMHEALHNHYTQKSLSLSPGK light 1: DIQMTQSPSSLSASVGDRVTITCRASSSVSYMHWYQQKPGKAPKPLIYAPSNLASGVPSRFSGSGSGTDFTLTISSLQPEDFATYYCQQWSFNPPTFGQGTKVEIKRTVAAPSVFIFPPSDEQLKSGTASVVCLLNNFYPREAKVQWKVDNALQSGNSQESVTEQDSKDSTYSLSSTLTLSKADYEKHKVYACEVTHQGLSSPVTKSFNRGEC heavy 2: not shown light 2: QAGLTQPPSVSVAPGQTARITCGGNNIGSKSVHWYQQKPGQAPVLVVYGDSDRPSGIPERFSGSNSGNTATLTISRVEAGDEADYYCQVWDISSDHVVFGGGTQLTVLQRQVKPEAWLSSGPSPGPGRLQLVCHVSGFYPKPVWVMWMRGEQEQQGTQLGDILPNANWTWYLRATLDVADGEAAGLSCRVKHSSLEGQDIILYWRGSC | 

— patent US20250340613A1 (JOINT STOCK COMPANY BIOCAD, published 2025)
